According to patent US9206432B2, “Sulfonylurea-responsive repressor proteins” (priority 2008, dated 2015):
Residue numbers refer to the chain shown, from its start.

B1: L6-5H06 (protein)
chain: MGSRLDKSKVINSALELLNEVGIEGLTTRKLAQKLGVEQPTLYWHVKNKRALLDALAIEMMDRHQTHICPLEGESWQDFLRNNAKSMRCALLSHRDGAKVCLGTRWTEKQYETAENMLAFLCQQGFSLENALYAVSAVRVFTLGCVLFDQELQVAKEERETPTTASMPPLVRQAWELKDHQGAEPAFLFGLELIICGLEKQLKCESGS
modifications: Sulfonylurea responsive repressor L6-5H06
B2: L6-5H12 (protein)
chain: B1 chain with Q65A, I68Y, M117Q, V135M
modifications: Sulfonylurea responsive repressor L6-5H12
B3: L6-6F07 (protein)
chain: B1 chain with Q65A, I68L, N83T, K109Q, T113S, V135M, L152S, V171L
modifications: Sulfonylurea responsive repressor L6-6F07

What follows are molecules tested on lacZ under control of the tetA promoter (PtetA) in E. coli KM3. Settings: not given.
Type: cell-based

Compared with B1, B2 is higher in “0.2 ppm 48 hr/Control 84 hr” value: 2.7 for the first, 4.2 for the second.

For B3, the “0.2 ppm 48 hr/Control 84 hr” value was 2.3.

Same assay, conditions: 0.2 ppm chlorsulfuron as inducer, M9 assay plates, 48 hr at 30° C., ImageJ colony color intensity

First: B1
Second: B2
The “0.2 ppm 48 hr (colony color intensity, induction by chlorsulfuron)” value of the first is lower: 13.7 for the first, 23.7 for the second.

With B3 the “0.2 ppm 48 hr (colony color intensity, induction by chlorsulfuron)” value was 11.6.

Same assay, conditions: no inducer, M9 assay plates, 84 hr at 30° C., ImageJ colony color intensity

Compared with B1, B2 is higher in “Control 84 hr (background activity, no inducer)” value: 5.1 for the first, 5.7 for the second.

For B3, the “Control 84 hr (background activity, no inducer)” value was 5.1.
